These results are taken from patent US20250250343A1.

Where two headings read alike, the source gives them in different places.

Assay [1] concerns the target VEGF (human) (UniProt P15692).
The target of assay [2] is VEGF (human) (UniProt P15692). This is another data set of the same source.
The target in assay [3] is VEGF (human) (UniProt P15692). The source holds these as a separate data set.
Assay [4] deals with human Tie2 (human) (UniProt Q02763).
The target is the same in assay [5]. The source holds these as a separate data set.
Assay [6] has the same target. The source holds these as a separate data set.
Assay [7] has the same target. This is another data set of the same source.
The target is the same in assay [8]. This is another data set of the same source.

Chain of human Tie2 (human) (Q02763 23-1124): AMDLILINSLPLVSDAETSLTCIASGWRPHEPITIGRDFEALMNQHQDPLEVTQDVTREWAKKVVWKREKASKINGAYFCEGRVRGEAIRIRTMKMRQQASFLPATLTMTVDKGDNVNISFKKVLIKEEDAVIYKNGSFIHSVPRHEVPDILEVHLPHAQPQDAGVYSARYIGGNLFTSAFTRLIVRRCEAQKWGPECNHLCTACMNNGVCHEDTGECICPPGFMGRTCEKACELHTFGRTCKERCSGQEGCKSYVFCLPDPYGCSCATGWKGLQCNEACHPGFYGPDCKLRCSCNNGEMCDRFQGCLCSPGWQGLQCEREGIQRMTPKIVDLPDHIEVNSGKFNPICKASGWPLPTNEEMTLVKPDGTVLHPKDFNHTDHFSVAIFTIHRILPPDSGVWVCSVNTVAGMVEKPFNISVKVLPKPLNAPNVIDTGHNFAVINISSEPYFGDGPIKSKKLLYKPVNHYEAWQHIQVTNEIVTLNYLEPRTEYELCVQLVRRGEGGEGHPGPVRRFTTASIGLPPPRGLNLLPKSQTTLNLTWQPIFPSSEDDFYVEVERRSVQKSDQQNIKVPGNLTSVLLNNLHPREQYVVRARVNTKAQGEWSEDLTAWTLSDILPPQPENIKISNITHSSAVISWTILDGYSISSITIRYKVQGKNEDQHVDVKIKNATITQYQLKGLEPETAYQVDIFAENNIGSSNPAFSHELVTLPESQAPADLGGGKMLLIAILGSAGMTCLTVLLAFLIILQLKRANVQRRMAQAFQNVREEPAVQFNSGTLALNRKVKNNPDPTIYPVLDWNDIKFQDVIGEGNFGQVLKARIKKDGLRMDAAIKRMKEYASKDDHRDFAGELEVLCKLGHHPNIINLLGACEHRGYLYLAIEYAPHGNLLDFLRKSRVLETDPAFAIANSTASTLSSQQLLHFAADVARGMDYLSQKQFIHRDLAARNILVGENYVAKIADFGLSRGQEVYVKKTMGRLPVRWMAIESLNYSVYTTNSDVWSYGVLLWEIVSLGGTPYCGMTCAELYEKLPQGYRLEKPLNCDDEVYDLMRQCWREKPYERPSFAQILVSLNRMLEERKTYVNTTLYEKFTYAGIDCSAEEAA
Chain of Ang1 (Q15389 20-498 limits assumed): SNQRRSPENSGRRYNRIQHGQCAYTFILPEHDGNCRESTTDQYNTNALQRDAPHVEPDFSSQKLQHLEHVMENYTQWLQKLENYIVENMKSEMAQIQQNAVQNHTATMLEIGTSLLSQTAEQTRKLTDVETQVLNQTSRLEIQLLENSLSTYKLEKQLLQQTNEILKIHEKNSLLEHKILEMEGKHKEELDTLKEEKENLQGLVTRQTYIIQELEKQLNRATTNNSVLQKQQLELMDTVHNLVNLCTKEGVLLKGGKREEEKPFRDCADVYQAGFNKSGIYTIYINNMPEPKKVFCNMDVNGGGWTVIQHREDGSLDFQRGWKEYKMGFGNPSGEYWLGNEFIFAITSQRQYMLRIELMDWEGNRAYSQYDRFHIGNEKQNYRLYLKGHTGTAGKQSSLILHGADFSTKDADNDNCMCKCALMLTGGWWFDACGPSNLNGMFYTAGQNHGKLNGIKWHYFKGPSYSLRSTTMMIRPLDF
Chain of VEGF (human) (P15692 other isoform, or with tags, fused parts or gaps limits assumed): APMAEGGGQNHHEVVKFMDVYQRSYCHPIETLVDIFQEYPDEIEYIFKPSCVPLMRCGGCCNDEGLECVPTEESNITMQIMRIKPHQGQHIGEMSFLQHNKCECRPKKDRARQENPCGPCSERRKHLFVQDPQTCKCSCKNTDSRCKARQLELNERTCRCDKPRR
Chain of Aflibercept-LALA-PG (Fc fusion) (chain): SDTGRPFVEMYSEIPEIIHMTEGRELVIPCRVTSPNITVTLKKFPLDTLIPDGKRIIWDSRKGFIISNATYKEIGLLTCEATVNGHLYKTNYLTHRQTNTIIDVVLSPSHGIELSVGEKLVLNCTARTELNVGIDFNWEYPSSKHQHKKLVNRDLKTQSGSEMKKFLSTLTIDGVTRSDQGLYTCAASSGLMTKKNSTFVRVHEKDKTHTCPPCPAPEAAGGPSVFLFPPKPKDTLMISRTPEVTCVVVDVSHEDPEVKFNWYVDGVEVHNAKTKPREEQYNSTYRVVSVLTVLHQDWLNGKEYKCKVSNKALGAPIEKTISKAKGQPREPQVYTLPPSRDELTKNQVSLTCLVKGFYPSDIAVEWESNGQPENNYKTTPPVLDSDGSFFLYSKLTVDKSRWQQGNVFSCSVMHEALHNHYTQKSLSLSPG
Chain of Aflibercept (Fc fusion) (chain): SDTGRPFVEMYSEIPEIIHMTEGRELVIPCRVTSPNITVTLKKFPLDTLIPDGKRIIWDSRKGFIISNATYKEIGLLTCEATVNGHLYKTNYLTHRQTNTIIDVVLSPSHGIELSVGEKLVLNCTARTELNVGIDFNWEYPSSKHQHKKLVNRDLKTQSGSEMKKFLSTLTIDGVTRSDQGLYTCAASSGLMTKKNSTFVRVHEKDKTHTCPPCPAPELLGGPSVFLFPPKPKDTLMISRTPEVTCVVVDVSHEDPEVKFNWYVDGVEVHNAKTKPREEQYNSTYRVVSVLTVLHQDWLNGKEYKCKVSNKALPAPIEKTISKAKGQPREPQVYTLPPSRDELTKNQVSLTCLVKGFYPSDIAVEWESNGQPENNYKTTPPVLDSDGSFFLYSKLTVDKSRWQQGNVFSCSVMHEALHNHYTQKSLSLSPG

For Aflibercept (Fc fusion), the EC50, VEGF inhibition, KDR/NFAT-RE HEK293 luciferase reporter [Panel C] with VEGF (human) [1] was 0.28 nM.
As to Aflibercept-LALA-PG (Fc fusion), in the assay with VEGF (human) [2], the IC50 (read off the curve); % VEGF activity, KDR/NFAT-RE HEK293 luciferase reporter [Panel A] came to 0.6 nM. This substance also had an EC50, VEGF neutralisation, KDR/NFAT-RE HEK293 luciferase reporter with VEGF (human) [3] of 0.56 nM.
For the substance “Ang1 (from UniProt Q15389 20-498) (ligand)”, the EC50, pTie2 in HUVEC, W/ VEGF (20 nM VEGF-165 per paragraph 153) [Panel E] with human Tie2 (human) [4] was 2.4 nM. For the same substance, the EC50, pTie2 in HUVEC, W/O VEGF [Panel E] in the assay with human Tie2 (human) [4] turned out to be 1.61 nM. Moreover, the EC50, pTIE2 in HUVEC [Panel C] in the assay with human Tie2 (human) [5] was 1.77 nM. Further, the EC50, pAkt in HUVEC (MSD ELISA) [Panel B] with human Tie2 (human) [6] came out at 4.1 nM; with human Tie2 (human) [8], 1.71 nM. Further, the EC50, pTie2 in HUVEC (in vitro potency) with human Tie2 (human) [7] is 4.58 nM.
